# T1: ZA domain of ASAP1 (Arf GAP and ankyrin repeat domains), [431–724]ASAP1 (UniProt Q9QWY8 431-724)
# T1 construct: Isotopically labelled for the PRE experiment; also called ΔPHZA; isolated ZA domain
# T1 sequence (looked up): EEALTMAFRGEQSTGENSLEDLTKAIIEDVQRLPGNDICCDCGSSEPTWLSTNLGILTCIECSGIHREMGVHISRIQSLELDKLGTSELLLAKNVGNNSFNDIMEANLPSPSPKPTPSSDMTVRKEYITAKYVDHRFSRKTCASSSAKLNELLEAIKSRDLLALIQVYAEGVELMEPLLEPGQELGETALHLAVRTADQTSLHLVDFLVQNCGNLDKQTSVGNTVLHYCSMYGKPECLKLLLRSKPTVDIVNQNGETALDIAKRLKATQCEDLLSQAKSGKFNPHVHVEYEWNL
# Assays:
# [1] = molecular target: T2, myristoylated human Arf1 (myrArf1), GTP-bound form at a membrane surface (human, UniProt P84077 1-181, N-myristoylated); assay: cell-based or functional assay
# T2 sequence (P84077 whole entry, the tested form may be a part): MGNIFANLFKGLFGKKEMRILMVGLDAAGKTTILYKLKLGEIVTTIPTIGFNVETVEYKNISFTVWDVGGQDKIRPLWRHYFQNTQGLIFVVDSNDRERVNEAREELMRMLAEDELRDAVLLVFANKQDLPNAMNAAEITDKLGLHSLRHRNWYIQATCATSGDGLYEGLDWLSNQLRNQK
# [2] = molecular target: T2, myristoylated human Arf1 (myrArf1), …; assay: other fluorescence titration + other: inhibition of GAP activity; PH domain titrated; (i) rate of mant-GTP dissociation from myrArf1 on LUVs with 5 mol% PI(4,5)P2, followed by FRET from Arf tryptophan to mant-GTP, excess GTP 160 μM; (ii) IC50 of PH domain for GAP activity of 1 nM wt PZA on myrArf1·GTP below the Km; both served as proxies for the affinity; settings: both partners purified
# [3] = molecular target: T1, ZA domain of ASAP1 (Arf GAP and ankyrin …); assay: NMR intermolecular paramagnetic relaxation enhancement (PRE); Cys159-MTSL myrArf1 with a non-hydrolysable GTP analog on nanodiscs, alone or in complex with wt PH (100 μM), and 100 μM isotopically labeled isolated ZA domain; settings: both partners purified
Binder,"'in trans' stimulation of GTP hydrolysis by ZA on myrArf1 (LUVs), relative to wt PH [1]",affinity relative to wt PH [2],Kd [3]
"ΔN14 ASAP1 PH domain, [339–451]ASAP1 (domain or fragment, UniProt Q9QWY8 339-451, looked up, ASAP1 residues 339-451: PH domain without residues 325-338 (the first 14 residues of the wt PH construct); also called ΔN14PH; source: E. coli BL21 Star (DE3) (pET3a) or BL21 (DE3) (pET21), purified (HiTrap SP HP, SEC)) GSEKKGFLLKKSDGIRKVWQRRKCAVKNGILTISHATSNRQPAKLNLLTCQVKPNAEDKKSFDLISHNRTYHFQAEDEQDYIAWISVLTNSKEEALTMAFRGEQSTGENSLED",0.01 fold of wt PH,~0.5 fold of wt PH,
"Cys159-MTSL tagged myrArf1 (natural protein, N-myristoylated; MTSL nitroxide spin label on the native Cys159, also called Arf (in the ZA PRE experiment); source: E. coli, co-expressed with yeast NMT, purified; spin-labelled with MTSL) not shown",,,100 to 1000 µM

# Source: publication PMC11957191, “The PH domain in the ArfGAP ASAP1 drives catalytic activation through an unprecedented allosteric mechanism” (Research Square, 2025)
